Laboratory results: the supplement of paper PMC12455559
± gives the standard deviation of the averaged measurements.

Assays:
[1] = purified protein yield per well (BCA); higher = higher soluble expression
Summary of the method: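 Each candidate enzyme was grown in E. coli C41(DE3) in a 2 mL autoinduction culture (100 µg/mL kanamycin; 2 h at 37 °C, then 40 h at 18 °C) and purified robotically via Ni-charged magnetic beads with SUMO protease cleavage. Purified protein yield per well was assessed using the Pierce Rapid Gold BCA kit. Readings below 25 ug (0.1 mg/mL) are beneath the detection threshold.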

[2] = PET hydrolysis, aromatic products released after 48 h (umol product/mg enzyme); higher = more PET depolymerization activity
Summary of the method: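 The measure of PET hydrolysis activity is aromatic product released into the supernatant, given per mg enzyme. Nickel-purified, SUMO-cleaved enzyme without tag was added at 5 μg (50 μL) to 3.5 mg amorphous PET film or crystalline PET powder in 450 μL of citrate, phosphate or glycine buffer spanning pH 4.5 to 8.5. After 48 h at 40 or 60 °C in sealed plates without shaking, absorbance at 260 and 280 nm was taken against buffer blanks.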

[3] = melting temperature (DSF); higher = more thermostable
Summary of the method: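 Values are melting temperatures from differential scanning fluorimetry. Candidate enzymes were expressed in E. coli C41(DE3), purified on nickel beads and freed by SUMO protease cleavage. In sealed PCR plates on a Bio-Rad CFX96, 45 μL enzyme (0 to 0.3 mg/mL) was combined with 5 μL 5X Sypro Orange. Fluorescence was recorded from 25 °C for 250 cycles, rising 0.3 °C per cycle at a ramp of 0.3 °C/s.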

[4] = substrate: aFilm, 40 °C, pH 4.5
[5] = substrate: aFilm, 40 °C, pH 5.5
[6] = substrate: aFilm, 40 °C, pH 6.5
[7] = substrate: aFilm, 40 °C, pH 7.5
[8] = substrate: aFilm, 60 °C, pH 4.5
[9] = substrate: aFilm, 60 °C, pH 5.5
[10] = substrate: aFilm, 60 °C, pH 6.5
[11] = substrate: aFilm, 60 °C, pH 7.5
[12] = substrate: cryPow, 40 °C, pH 4.5
[13] = substrate: cryPow, 40 °C, pH 5.5
[14] = substrate: cryPow, 40 °C, pH 6.5
[15] = substrate: cryPow, 40 °C, pH 7.5
[16] = substrate: cryPow, 60 °C, pH 4.5
[17] = substrate: cryPow, 60 °C, pH 5.5
[18] = substrate: cryPow, 60 °C, pH 6.5
[19] = substrate: cryPow, 60 °C, pH 7.5
[20] = substrate: aFilm, 40 °C, pH 8.5
[21] = substrate: aFilm, 60 °C, pH 8.5
[22] = substrate: cryPow, 40 °C, pH 8.5
[23] = substrate: cryPow, 60 °C, pH 8.5

Row | Sequence | purified protein yield per well [1] [µg] | PET hydrolysis [2, 4] | PET hydrolysis [2, 5] | PET hydrolysis [2, 6] | PET hydrolysis [2, 7] | PET hydrolysis [2, 8] | PET hydrolysis [2, 9] | PET hydrolysis [2, 10] | PET hydrolysis [2, 11] | PET hydrolysis [2, 12] | PET hydrolysis [2, 13] | PET hydrolysis [2, 14] | PET hydrolysis [2, 15] | PET hydrolysis [2, 16] | PET hydrolysis [2, 17] | PET hydrolysis [2, 18] | PET hydrolysis [2, 19] | melting temperature [3] [C] | PET hydrolysis [2, 20] | PET hydrolysis [2, 21] | PET hydrolysis [2, 22] | PET hydrolysis [2, 23]
1 | RPASAQDNPYERGPDPTVSSVAAQRGTFATAEVTVPPGNGFNGGKIYYPTDTSKGTWGAVAAVPGYTAKWAAEGAWMGPWLASFGFVVIGIDTNSPNDYDTARGTQLLAALDYLTQKSPVRDRVDPNRLGVIGHSMGGGGAISAAERRPSLKAALPLAPFSPSQNLSSLRVPTMIMGARDDGTVTPSYLNGLYAGMPAATPSAYIELTSGGHGFPTWGNSNVTRRTIPWLKIFLDNDTRYTQLLCPSPADRTGVSRSQVKCAYVPGGGTTPPPPSSGQIVGAASARCLDVPNSSQTNGTQLQLWDCLDQTSQKWARTDAGELRVYGNKCLDAEASGTSAGTRAIIWDCHGGQNQRWNVNANGTITSARSGLCLDANNAGTANGTQAILWTCNGGSNQRWTLR [TEP097] | 270 | < 3 | < 3 | < 3 | < 3 | < 3 | < 3 | < 3 | < 3 | 8 | 13 ± 1.4 | 31 ± 7.1 | 30.5 ± 2.1 | < 3 | 4.5 ± 0.71 | 4.5 ± 0.71 | 2 ± 2.8 | 64.6 |  |  |  | 
2 | ADNPFQRGPNPTVASVAATRGTFATAQTSVPAGNGFGGGVIYYPTDTSQGTFGGVAIVPGYSALFANEEAWMGPWLASFGFVVIGIETNSRTDSADARGTQLLAALDYLTQRSSVRDRVDPNRLSVVGHSAGGAGVLSALLRRPSLKAGVGLAPGSPVGNYDLYNDRVPTMFISGQRDTTVTQSYLNGLYSTLPATTPSAWVEITGVDHLFATRANTTEMRVLIPWLKIWVDNDTRYTQFLCPLADSSNISMYRNKCPYVPPGGSSPSPSASPSSSPSPSPSSSPSPSPSPSPSPSPSPSPSPTTSPSPPPPGACSAAYRTVNSWPGGYQGEVTVTAGGSAVNGWTVRWTLGSGQTITQLWNGTLSTSGSAVTVKNASFNGSIPASGSATFGFLATGTPSAPSLSCTSP [ESM007] | 424 |  |  |  |  |  |  |  |  | < 3 | < 3 | < 3 | < 3 | < 3 | < 3 | < 3 | < 3 | 59.2 |  |  |  | 
3 | ADNPYQRGPDPTPASVSANRGTFATAQISVPAGNGFGGGVIYHPTDTSQGTFGAIAVVPGYTATWAAEGAWMGHWLASFGFVVIGIDTNSRNDWDTARGTQLLAALDYLTQRSPVRDRVDANRTAVMGHSMGGGGAMHAALQRPSLKAAIGLAPFSPSQNLTTTRVPTMLLAGQSDTTTTPASILNLYNGIPAATEKAYLELTGAGHGFPTSNNPTMMRNVIPWLKIFVDSDTRYTQFLCSLSNWDGIRAYQSTCPLVPSPVPTTTSTTSTTTTISTTTTTPAPGDACSATYRTTNSWPGGYQAEVTVTAGNTAVNGWNVQWTLGSGQTVTQVWNGTLNVSGSTASVRNASYNGSLQANTSTTFGFIGGGTPPTSSLSCTSP [ESM035] | 510 | < 3 | < 3 | < 3 | < 3 | < 3 | < 3 | < 3 | < 3 | < 3 | < 3 | 7 ± 2.8 | 23.5 ± 0.71 | < 3 | < 3 | < 3 | < 3 | 57.4 |  |  |  | 
4 | AGFEKGPDPTTASVTADRGSYDIAQVDVPKGSGTGFADGTIYYPKSTADGTFGAVAVIPGFLEPKSAIDWYGPRLASQGFVVMTLDTTSVFDTPDSRGGQLLAALDYLTSKSTVKDRIDPNRLAVVGHSMGGGGTLSAAANRPNLKAAVALAPWHVSAPLTSVKTPTMIFGSDNDFIAPDGTFAKPFYDGISNAPEKAYVRLKNAGHMAYVFPDKRIAEYTLSWLKRYVDDDTRYTQFLCPGPTNESTIAAYKSTCPM [DP093] | 225 |  | < 3 | < 3 | < 3 |  | < 3 | < 3 | < 3 |  | 4 | 1.5 ± 2.1 | < 3 |  | < 3 | < 3 | < 3 | 46.6 | < 3 | < 3 | < 3 | < 3
5 | ADNPYQRGPNPTRESVAANRGTFATAETSVGGGNGFGGAKIYYPADTSQGKFAALAVVPGYTATWAAEGAWMGHWLASFGFVIIGIDTNSRNDWDTARGDQLLAALDYLTQRSSVRDRVDANRLGVMGHSMGGGGAISAALKRPTLKAAIGNAPFSASQNLTTMRVPIALNAGQRDGTVTPSMVTGYYNQVPATTEKMYLEFSGAGHAFPTSNNSALTRKIIPWMKIFLDQDTRYQQFLCPVMDNTGISASRSSCPLIPGDPTPPTDTYSLAGAASGKCADVEGRSQTNGAKLLLWPCNGQVNQRWTQTAAGELRVYDNPKCMDAGGSGQGERVTSNACNGGNSQKWTVNANGTVTNTTSGRCLDATGTADDAPVVVNTCNGAASQNWSKRS [TEP131] | 331 | < 3 | < 3 | < 3 | < 3 | < 3 | < 3 | < 3 | < 3 | < 3 | < 3 | 4 | 6.5 ± 0.71 | < 3 | < 3 | < 3 | < 3 | 55.3 |  |  |  | 
6 | ASPYQRGPNPTAASIAATTGPFAIASITVPRGNGFGGGVIYYPTSTSQGTFGGIAISPGLNGTWSGISWLGPRLASQGFVVFGIETNNLNDSPTSRGTQLLAALDYLTQRSSVRSRLDANRLAVMGHSMGGGGALDAALRRPTLKATIGNAPHLPSGSLANDRVPTLIYAMQNDTLVTPARLTSLYNTIPAATERAYIEVTGAGHNYIGQPSTTLARTMIPWLKIFIDSDTRYAPFLCPLNDRSGIRQYRNSCPLI [ESM128] | 407 | < 3 | < 3 | < 3 | 6 | < 3 | < 3 | < 3 | < 3 | < 3 | 43 | 75 ± 1.4 | 110 ± 4.2 | < 3 | 4.5 ± 0.71 | 18.5 ± 3.5 | 41.5 ± 6.4 | 66.4 |  |  |  | 
7 | EEPASGYQRGPAPTTSSIESSRGPFSTSQVSISGLSANGFGGADVYYPTDTSQGTFGAVAISPGYTARKSSMAWLASRLASQGFVVINIDTNTTSDQPASRGRQLLAALDQVTKDSRVANRIDPTRLAVVGHSMGGGGALEASRSRPSLQAAIPLTPWNTTKSFSGNQVPTLVVGAERDTVASVRSHAEPFYRSLPSAPGKAYLELAGASHFAPNTSNTTIAKHSIAWLKLFVDNDERYRQFVCPGPTSDRAVSDYQNTCSSFTP [DP053] | 235 |  | < 3 | < 3 | < 3 |  | < 3 | < 3 | < 3 |  | < 3 | < 3 | < 3 |  | < 3 | < 3 | < 3 | 42.7 | < 3 | < 3 | < 3 | < 3
8 | ATGPSSPCSNCTRGPDPTVASLKSATGPYTTAKFSVSGYLKGFGDSTVYYPTNASGKMGAIAVIPGYVSYEDSIKWWGPRLASHGFVVMTMNTSTIYDQPDSRATQLSKALDYMIAQSGSSSSPIYNKVDSTRLGVIGWSMGGGGTLKLSTQRSINAIIPQAPYYAGSNSFNTIKTPALILACGADAVAPVGVHASPFYNRIPGTTPKAYLEIYGGSHFCANSGYPNEDLLGMYGIAWMKRFIDFDSRYSKFLCGPNHTADLNISEYRQNCNY [DP078] | 29 |  |  |  |  |  |  |  |  |  | 9 | 47 | 60 |  |  |  |  | 59.5 |  |  | 66 | 
9 | NPYERGPAPTTSSIEASRGSFATSTTTVSRLAVSGFGGGTIYYPTSTASGTFGAVSIAPGFTATQSSMAWLGPRLASQGFVVFTIDTITTSDQPDSRGRQLLSSLDYLTQQSSVRSRIDSSRLGVVGHSMGGGGTLEAARSRPSLQAAVPLTGWNLTKSWSTVRVPTLVVGAQADTVAPVASHSIPFYTSLPSSLDKAYLELRGASHFAPNSANTTIAKYTLSWLKRFIDDDTRYEQFLCPIPGTSTTISDYRGNCPHAG [ESM140] | 187 |  |  |  |  |  |  |  |  | < 3 | 5 | 22 | 33 | < 3 | 4 | 8 | 9 | 51.7 |  |  |  | 
10 | ADNPYQRGPDPTRTSVAAVNGPFANTSVSVPTGYGFNGGRIYYPTDTSQGTFGAIAISPGYTALFSAELAWMGPWLASHGFVVIGIETNSRNDFDTARGTQLLAALDYLTQQSPVRDRVDPNRLAVSGHSMGGGGALSAAIRRSSLKAVVGIAPYSPSSNLANDRVPTMIFSGQADTVVTPSYATGLYNSLPATTESVYLEVAGADHGFMVGRSNPVMIRTMLPFVKMFIDNDTRYSQFLCPLLDSSGVVTYRSTCPLLPPAPTTPPPTGTPTPTPSSNPTTPPTTPPSTPTA [ESM061] | 408 | < 3 | < 3 | < 3 | < 3 | < 3 | < 3 | < 3 | < 3 | 11 ± 2.8 | 23 ± 1.4 | 5 | < 3 | < 3 | < 3 | < 3 | < 3 | 62.8 |  |  |  | 
